In PMC11455619:

Target: septin-7 (commercially purified, LSBio) (UniProt Q16181)
Assay: MST

Chain of septin-7 (commercially purified, LSBio) (Q16181 whole entry): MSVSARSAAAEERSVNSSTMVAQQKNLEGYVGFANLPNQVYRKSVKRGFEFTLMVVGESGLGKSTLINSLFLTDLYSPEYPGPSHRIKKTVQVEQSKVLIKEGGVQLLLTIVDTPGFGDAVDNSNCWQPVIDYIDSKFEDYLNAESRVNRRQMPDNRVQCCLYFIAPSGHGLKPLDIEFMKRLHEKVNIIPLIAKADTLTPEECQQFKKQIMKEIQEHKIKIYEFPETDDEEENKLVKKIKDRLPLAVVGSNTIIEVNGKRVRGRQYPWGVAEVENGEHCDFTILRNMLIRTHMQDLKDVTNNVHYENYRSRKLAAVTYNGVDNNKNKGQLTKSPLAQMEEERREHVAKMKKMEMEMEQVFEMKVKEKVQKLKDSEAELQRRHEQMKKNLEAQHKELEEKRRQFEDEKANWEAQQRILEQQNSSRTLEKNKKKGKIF

Which Kd does the source give for “SOD1 trimer, HG trimer-stabilising mutant (printed as H46G-G108H and as H46Q-G108H) (from UniProt P00441 1-154) (enzyme)” here?
Its Kd is 7.48 µM.
